Experiment [1] addresses CsGSIb EVK138DIQ mutant (Camellia sinensis). The experiment in a line: AUC.
Experiment [2] has the same target. The experiment in a line: SEC-MALS.
The target of experiment [3] is CsGSIb I143L mutant (Camellia sinensis). The experiment in a line: AUC.
Experiment [4] shares this target. The experiment in a line: SEC-MALS.
Experiment [5] has as its target glutamine synthetase CsGSIb from Camellia sinensis, wild type (Camellia sinensis). The experiment in a line: negative-stain electron microscopy.
Experiment [6] shares this target. The experiment in a line: cryo-EM structure.
The target is the same in experiment [7]. The experiment in a line: AUC.
Experiment [8] shares this target. The experiment in a line: cryo-EM structure. The source holds these as a separate data set.
The target is the same in experiment [9]. The experiment in a line: SEC-MALS.
Experiment [10] has as its target glutamine synthetase GmGSβ2 from Glycine max (Glycine max). The experiment in a line: negative-stain electron microscopy.
The target is the same in experiment [11]. The experiment in a line: cryo-EM structure.
Experiment [12] has the same target. The experiment in a line: SEC-MALS.

“And” between values parts separate entries of the source, which are not always exact repeats. Equal entries are not always repeated.

With CsGSIb EVK138DIQ mutant (enzyme), in experiment [1], the Kd is 40 nM. In experiment [2], this substance displayed a percent of the protein in the decameric state of 72% and a stoichiometry N of 10.

Regarding CsGSIb I143L mutant (enzyme), in experiment [3], the Kd turned out to be 10 nM. For the same substance, in experiment [4], the percent of the protein in the decameric state is above 95% and the stoichiometry N was 10.

For “glutamine synthetase CsGSIb from Camellia sinensis, wild type (enzyme)”, the stoichiometry N in experiment [5] was 5 and 10; in experiment [6] it was 5; in experiment [7], 10 and 5; in experiment [8], 10; in experiment [9], 5 and 10. Moreover, in experiment [7], the Kd was 270 nM. Further, the percent of the protein in the decameric state in experiment [9] was found to be 18%. In addition, the percent of the protein in the pentameric state in [9] stood at 82%.

With “glutamine synthetase GmGSβ2 from Glycine max (enzyme)”, the stoichiometry N in [10], in experiment [11] and in [12] was 10 each time.

The values are drawn from paper doi:10.1101/2021.08.20.457084.
